From article PMC5372681, “Study of Different Variants of Mo Enzyme crARC and the Interaction with Its Partners crCytb5-R and crCytb5-1” (International Journal of Molecular Sciences, 2017) come the findings set out here.

The assay deals with T1, crARC, Chlamydomonas reinhardtii mARC (mitochondrial Amidoxime Reducing Component), wild type (Chlamydomonas reinhardtii).
T1 construct: crARC, Chlamydomonas reinhardtii mARC, GenPept XP_001694549; Carries the Mo Cofactor; The mutant cDNAs were cloned in pQE80 (N-terminal six histidines); also called wild type crARC; Mo enzyme crARC; source: E. coli TP1000 (mobA), purified (Ni-NTA, PD10 desalting)
Nature of the assay: SEC; two proteins incubated together for 10 min, then loaded; 15 pmol of each; Superdex 200 10/300 GL, 50 mM phosphate buffer pH 7.2, 0.15 M NaCl, 0.75 mL/min; peak fractions checked by SDS-PAGE. The conditions noted are these: both partners purified.

B1: crCytb5-R, Chlamydomonas reinhardtii NADH cytochrome b5 reductase (enzyme)
chain: MEEAGSEVMRSVITLLSYWQVGAGLLVVLVLIQALVFLRKKTKKPFLDPSEFQPVPLVEKTLITHNTVRLRFALPDPEQRVGLPIGQHISFKAQGEDGKDVIRPYTPVSDDDQLGAVDFVIKLYPTGKMSQVIAKMQLGDTMLMKGPKGRFTYTPNMVKHFGMLAGGTGITPMFQVLNAILKNPRDTTSVTLLYGNLTEEDILLRKELDELVAMHGNRLTVYHVLNTPPVDKEWSGGSGFISSELIRTKFPAPSSDIMTLRCGPSPMMVAMEKALTDLGYAEDKQFQF
The term stoichiometry N denotes a count of units in the complex or per binding partner. In the case of B1, the “stoichiometry N” value worked out at 1 crCytb5-R per crARC.
